Data published in paper PMC12228687, “Harnessing protein language model for structure-based discovery of highly efficient and robust PET hydrolases” (Nature Communications, 2025).

B1: KbPETase (APET-14) (Kibdelosporangium banguiense) (protein)
chain: DEIGQAPTAANITGDGSFSTSSSAIFGQSGFGGGTAYYPNTAGKYPVVAFAPGFLSDWNALNWLGPRVASWGFVVVGVNTNTPFDFPDARGDQLLAALNWAVNSAPAAVRDKADGSRRGVSGWSMGGGGTLEALAKDTTGTVKAGVPLAPWHTNKTWSKVTEPVFIIGGQNDSVAAPASHAIPFYNSLGGPKSYLERAGADHFFPTKSNGTVSRAVVSFFKRHVSADTRFTPFLCGFSGLDVSNFRSNSC
notes: predicted signal peptide (SignalP) removed; N-terminal His-tag, pET-28a(+) NdeI/NotI; E. coli BL21(DE3); Ni-NTA purified
B2: LCC (unidentified prokaryotic organism) (protein)
chain: QSNPYQRGPNPTRSALTADGPFSVATYTVSRLSVSGFGGGVIYYPTGTSLTFGGIAMSPGYTADASSLAWLGRRLASHGFVVLVINTNSRFDYPDSRASQLSAALNYLRTSSPSAVRARLDANRLAVAGHSMGGGGTLRIAEQNPSLKAAVPLTPWHTDKTFNTSVPVLIVGAEADTVAPVSQHAIPFYQNLPSTTPKVYVELDNASHFAPNSNNAAISVYTISWMKLWVDNDTRYRQFLCNVNDPALSDFRTNNRHCQ
notes: wild-type LCC (LCC-ICCG is a separate variant)

Key:
purified protein [1] = substrate: CCCC(=O)Oc1ccc([N+](=O)[O-])cc1; assay: purified protein; format: biochemical, Kibdelosporangium banguiense; details: 10 mM potassium phosphate pH 8.0 (stock buffer), 50 °C, 3 min, 0.5 µg/mL enzyme, 0.2-1.8 mM pNPB
purified protein [2] = substrate: CCCC(=O)Oc1ccc([N+](=O)[O-])cc1; assay: purified protein; format: biochemical, unidentified prokaryotic organism; details: 10 mM potassium phosphate pH 8.0 (stock buffer), 50 °C, 3 min, 0.5 µg/mL enzyme, 0.2-1.8 mM pNPB

| Protein | Km (purified protein [1]) [mM] | kcat (purified protein [1]) [s⁻¹] | kcat/Km (purified protein [1]) [M⁻¹ s⁻¹] | Km (purified protein [2]) [mM] | kcat (purified protein [2]) [s⁻¹] | kcat/Km (purified protein [2]) [M⁻¹ s⁻¹] |
| --- | --- | --- | --- | --- | --- | --- |
| B1 | 1.04 ± 0.201 | 0.27 ± 0.021 | 263 ± 31 | – | – | – |
| B2 | – | – | – | 1.053 ± 0.289 | 0.186 ± 0.021 | 208 ± 17 |
